Results: PMC6208366

Assays:
[1] = biological target: IANBD-labeled Hsp90 M362C (human); test: stopped-flow fluorescence; IANBD-labeled Hsp90 M362C (1 µM) mixed with equal volumes of FKBP51, FK1-FK2, FK2-TPR or buffer, pseudo-first-order, 37 °C, 25 mM sodium phosphate/300 mM NaCl pH 7.2; rates as fluorescence increase at 20 s
[2] = biological target: human full-length Hsp90β (human) (UniProt P08238); test: ITC; settings: domain or fragment
human full-length Hsp90β (human), sequence (P08238 whole entry, the tested form may be a part): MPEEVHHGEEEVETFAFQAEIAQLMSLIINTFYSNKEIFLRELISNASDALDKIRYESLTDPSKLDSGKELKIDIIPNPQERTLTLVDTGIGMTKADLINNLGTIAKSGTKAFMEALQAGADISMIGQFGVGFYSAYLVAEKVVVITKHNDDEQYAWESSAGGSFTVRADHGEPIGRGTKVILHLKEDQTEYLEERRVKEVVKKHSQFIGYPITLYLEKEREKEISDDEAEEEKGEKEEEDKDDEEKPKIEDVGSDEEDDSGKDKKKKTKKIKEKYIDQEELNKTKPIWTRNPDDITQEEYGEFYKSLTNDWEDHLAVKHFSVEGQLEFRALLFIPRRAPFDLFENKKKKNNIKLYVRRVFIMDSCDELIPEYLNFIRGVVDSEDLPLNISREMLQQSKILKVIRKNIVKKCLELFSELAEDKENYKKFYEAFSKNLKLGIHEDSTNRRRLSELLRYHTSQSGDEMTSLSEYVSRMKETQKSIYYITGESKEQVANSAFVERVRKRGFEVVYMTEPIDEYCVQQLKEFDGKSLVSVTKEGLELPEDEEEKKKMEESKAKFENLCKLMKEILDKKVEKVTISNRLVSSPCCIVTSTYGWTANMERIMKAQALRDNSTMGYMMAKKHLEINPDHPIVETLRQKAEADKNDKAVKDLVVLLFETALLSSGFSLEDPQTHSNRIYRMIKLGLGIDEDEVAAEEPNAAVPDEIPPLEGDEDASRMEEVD

FK2-TPR (which lacks FK1), sequence (Q13451 whole entry): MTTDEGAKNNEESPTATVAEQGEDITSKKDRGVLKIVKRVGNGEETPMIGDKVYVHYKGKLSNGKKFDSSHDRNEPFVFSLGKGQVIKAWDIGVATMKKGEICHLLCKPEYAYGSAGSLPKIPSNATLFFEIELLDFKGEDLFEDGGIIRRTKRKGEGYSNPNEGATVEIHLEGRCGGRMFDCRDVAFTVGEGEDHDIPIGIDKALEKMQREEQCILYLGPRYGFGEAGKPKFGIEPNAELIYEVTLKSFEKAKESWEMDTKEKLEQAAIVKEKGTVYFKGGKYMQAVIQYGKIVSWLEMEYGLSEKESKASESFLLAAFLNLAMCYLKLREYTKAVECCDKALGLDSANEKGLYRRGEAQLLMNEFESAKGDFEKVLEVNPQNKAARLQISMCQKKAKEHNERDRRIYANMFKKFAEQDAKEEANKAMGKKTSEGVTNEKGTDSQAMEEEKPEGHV

With “FK2-TPR (which lacks FK1) (from UniProt Q13451 1-457) (domain or fragment)” as the substance, how does the ΔF (rate of Hsp90 binding, fluorescence increase) [1] read?
The ΔF (rate of Hsp90 binding, fluorescence increase) was 0.0027 s⁻¹.

“FK2-TPR (which lacks FK1) (from UniProt Q13451 1-457)” was tested. Which Kd [2] did it give?
Its Kd is 728 nM.
